{
  "source": "patent US20140315822A1",
  "about": "(INSTITUT PASTEUR, published 2014)",
  "binders": {"B1": {"name": "PDZ domain of the human MAST2 protein (other)", "chain": "MRPPIIIHRAGKKYGFTLRAIRVYMGDSDVYTVHHMVWHVEDGGPASEAGLRQGDLITHVNGEPVHGLVHTEVVELILKSGNKVAISTTPLEN"}},
  "key": {"[1]": {"target": "460"}, "[2]": {"target": "461"}, "[3]": {"target": "439"}, "[4]": {"target": "443"}, "[5]": {"target": "453"}, "[6]": {"target": "455"}},
  "data": [
    {"binder": "B1", "values": [
      {"measurement": "Kd", "setting": "[1]", "result": 188, "unit": "nM"},
      {"measurement": "Kd", "setting": "[2]", "result": 126, "unit": "nM"},
      {"measurement": "Kd", "setting": "[3]", "result": 210, "unit": "nM"},
      {"measurement": "Kd", "setting": "[4]", "result": 400, "unit": "nM"},
      {"measurement": "Kd", "setting": "[5]", "result": 238, "unit": "nM"},
      {"measurement": "Kd", "setting": "[6]", "result": 130, "unit": "nM"}
    ]}
  ]
}
